Measurements as given in article PMC2714943 (Biochemistry, 2009).

What was measured:
[1] = biological target: (+)-δ-cadinene synthase (DCS, isozyme XC1) (Gossypium arboreum, UniProt Q39761)
[2] = tested on: CC(C)=CCC/C(C)=C/CC/C(C)=C/CO[P@@](=O)(O)OP(=O)(O)O; assay: purified protein; assay type: biochemical, Gossypium arboreum; conditions: Mg2+

Sequence of (+)-δ-cadinene synthase (DCS, isozyme XC1) (Q39761 whole entry): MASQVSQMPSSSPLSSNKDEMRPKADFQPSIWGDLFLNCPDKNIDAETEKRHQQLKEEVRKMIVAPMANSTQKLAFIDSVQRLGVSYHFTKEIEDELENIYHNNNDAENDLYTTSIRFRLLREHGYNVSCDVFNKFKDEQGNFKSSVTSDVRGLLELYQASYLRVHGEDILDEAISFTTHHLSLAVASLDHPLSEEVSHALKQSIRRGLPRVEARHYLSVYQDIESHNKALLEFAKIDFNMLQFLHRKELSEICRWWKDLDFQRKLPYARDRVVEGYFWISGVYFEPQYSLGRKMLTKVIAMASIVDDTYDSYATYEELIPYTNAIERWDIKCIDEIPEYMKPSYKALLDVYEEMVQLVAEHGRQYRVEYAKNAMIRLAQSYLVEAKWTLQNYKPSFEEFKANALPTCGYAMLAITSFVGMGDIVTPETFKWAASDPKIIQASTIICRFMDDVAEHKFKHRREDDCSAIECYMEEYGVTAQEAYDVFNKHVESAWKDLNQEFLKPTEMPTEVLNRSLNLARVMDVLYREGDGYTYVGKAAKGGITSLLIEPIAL

Compound | Km [1] [µM] | Km [2] [µM]
CC(C)=CCC/C(C)=C/CC/C(C)=C/CO[P@@](=O)(O)OP(=O)(O)O [FPP] | 3.2 ± 0.5 | –
(+)-δ-cadinene synthase (DCS, isozyme XC1) (Gossypium arboreum; D308A) | – | 43 ± 16
(+)-δ-cadinene synthase (DCS, isozyme XC1) (Gossypium arboreum; D451A) | – | 2.4 ± 0.3
(+)-δ-cadinene synthase (DCS, isozyme XC1) (Gossypium arboreum; D452A) | – | 3.1 ± 1.2
